Test results taken from publication doi:10.1101/2021.07.08.451649 (bioRxiv, 2021).

Target: Recombinant SARS-CoV-2 spike N-terminal domain (NTD) (SARS-CoV-2, ancestral (Wuhan-Hu-1), UniProt P0DTC2)
Assay: BLI

B1: PVI.V6-14 monoclonal antibody (IgG) (antibody, V domains shown)
VH: QVQLQESGPGLVKPSETLSLTCTVSGGSISSSSYYWGWIRQPPGKGLEWIGSIYYSGSTYYNPSLKSRVTISVDTSKNQFSLKLSSVTAADTAVYYCARCRPEYYFGSGSYLDFDY
VL: DIQMTQSPSSVSASVGDRVTITCRASQGISSWLAWYQQKPGKAPKLLIYAASSLQSGVPSRFSGSGSGTDFTLTISSLQPEDFATYYCQQANSFPLTFGGGTKVEIK
- binding result: binds
